The term koff denotes the rate constant with which the complex falls apart. For orientation: kon means the second-order rate constant of association.

From article PMC7018950, “A conserved strategy of chalcone isomerase-like protein to rectify promiscuous chalcone synthase specificity” (Nature Communications, 2020) come the findings set out here.

Test [1] concerns the target T1, glutathione S-transferase-tagged CHIL of morning glory (Ipomoea nil (morning glory)).
T1 construct: the purification of the GST fusions is not described; also called InCHIL; EFP; source: E. coli (pGEX4T-1)
Nature of the test: BLI; BLItz; His6-tagged CHS immobilised on anti-His6 sensors, GST-tagged CHIL loaded; 100 mM HEPES-NaOH pH 7.5; 1:1 binding model; apparent KD. The note with it: both partners purified. Background: BLI is a label-free optical method that tracks binding on a fibre tip over time.

Test [2] deals with T2, His6-tagged Arabidopsis thaliana chalcone synthase (AtCHS) (Arabidopsis thaliana, UniProt P13114 1-395).
T2 construct: also called TT4; source: E. coli BL21 (pCold I), purified; not shown: His6, N-terminal, kept
T2 sequence (looked up): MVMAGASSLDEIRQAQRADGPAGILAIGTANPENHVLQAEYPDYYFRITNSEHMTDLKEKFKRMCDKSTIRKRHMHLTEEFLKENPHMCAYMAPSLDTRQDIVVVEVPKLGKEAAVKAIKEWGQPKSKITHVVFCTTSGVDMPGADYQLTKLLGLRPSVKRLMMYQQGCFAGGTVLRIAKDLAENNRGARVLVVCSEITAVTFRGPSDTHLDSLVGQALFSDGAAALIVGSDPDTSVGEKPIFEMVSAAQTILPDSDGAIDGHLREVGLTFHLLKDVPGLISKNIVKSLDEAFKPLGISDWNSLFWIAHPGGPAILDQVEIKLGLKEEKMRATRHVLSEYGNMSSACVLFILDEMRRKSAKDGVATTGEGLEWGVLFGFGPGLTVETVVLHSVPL
Briefly: BLI; BLItz; His6-tagged CHS immobilised on anti-His6 sensors, GST-tagged CHIL loaded (30-150 s), wash (150-270 s); 100 mM HEPES-NaOH, pH 7.5; 1:1 binding model; apparent KD. The settings on record: both partners purified.

B1: His6-tagged CHS of morning glory (enzyme)
chain: MVTVEEVRKAQRAEGPATILAIGTATPANCVDQSTYPDYYFRITNSDHMTDLKQKFQRMCDKSMITKRYMHLTEEILKENPSFCEYMAPSLDARQDIVVVEVPKLGKEAAQSAIKEWGQPKSKITHVIFCTTSGVDMPGADYQLTKLLGLRPSVKRLMMYQQGCFAGGTVLRVAKDLAENNKAARVLVVCSEITVVTFRGPNETHLDSLVGQALFGDGAAAIIVGSDPTPAEKPLFQLVSAAQTLAPDSCGAIDGHLREVGLTFHLLKDVPSIVSNNIEKCLSEAFNPLGISDWNSIFWIAHPGGPAILDQVEDKLGLKPEKLRATRHVLSEYGNMSSACVLFILDEMRKASSNDGLGTTGEGLEWGVLFGFGPGLTIETVVLHSVPA
Consider B1, for which the Kd in test [1] stood at 1 nM.

B2: glutathione S-transferase-tagged Arabidopsis thaliana chalcone isomerase-like protein (AtCHIL) (natural protein)
chain: MVMVHEVPFPPQIITSKPLSLLGQGITDIEIHFLQVKFTAIGVYLDPSDVKTHLDNWKGKTGKELAGDDDFFDALASAEMEKVIRVVVIKEIKGAQYGVQLENTVRDRLAEEDKYEEEEETELEKVVGFFQSKYFKANSVITYHFSAKDGICEIGFETEGKEEEKLKVENANVVGMMQRWYLSGSRGVSPSTIVSIADSISAVLT
notes: chalcone isomerase-like protein AtCHIL, Arabidopsis thaliana; source: E. coli (pGEX4T-1)
Regarding B2, in test [2], the Kd amounted to 9.15 nM, the off-rate constant (koff) was found to be 0.00137 s⁻¹ and the kon worked out at 150000 M⁻¹ s⁻¹.
